No end group written: not given here.
Experiments:
Assay in all cases: pull-down; 1 nmol biotinylated BRC5 peptide on Dynabeads M-280 Streptavidin, 100 pmol purified HMG20b fragment; 50mM Tris-HCl pH 7.4, 150mM NaCl, 1% NP-40, 5mM EDTA, 10mM NaF, 0.1% BSA; 30 minutes at room temperature; Coomassie staining
Conditions in all cases: both partners purified
[1] = target: T1, HMG20b fragment aa173-317 with C-terminal 6xHis tag (human, UniProt Q9P0W2 173-317)
T1 construct: cloned in pET21a; also called C-terminal fragment; source: E. coli BL21 (DE3), purified (Ni-NTA agarose)
T1 sequence (looked up): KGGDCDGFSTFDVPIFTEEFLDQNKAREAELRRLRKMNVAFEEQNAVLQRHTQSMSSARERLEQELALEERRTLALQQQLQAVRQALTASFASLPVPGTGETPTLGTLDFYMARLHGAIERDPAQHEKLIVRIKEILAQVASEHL

[2] = target: T2, HMG20b fragment aa173-276 with C-terminal 6xHis tag (human, UniProt Q9P0W2 173-276)
T2 construct: cloned in pET21a; also called C-terminal Δ1; source: E. coli BL21 (DE3), purified (Ni-NTA agarose)
T2 sequence (looked up): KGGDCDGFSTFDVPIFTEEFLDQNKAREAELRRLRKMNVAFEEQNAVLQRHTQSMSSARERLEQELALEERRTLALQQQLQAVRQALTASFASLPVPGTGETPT

[3] = target: T3, HMG20b fragment aa113-317 with C-terminal 6xHis tag (human, UniProt Q9P0W2 113-317)
T3 construct: cloned in pET21a; source: E. coli BL21 (DE3), purified (Ni-NTA agarose)
T3 sequence (looked up): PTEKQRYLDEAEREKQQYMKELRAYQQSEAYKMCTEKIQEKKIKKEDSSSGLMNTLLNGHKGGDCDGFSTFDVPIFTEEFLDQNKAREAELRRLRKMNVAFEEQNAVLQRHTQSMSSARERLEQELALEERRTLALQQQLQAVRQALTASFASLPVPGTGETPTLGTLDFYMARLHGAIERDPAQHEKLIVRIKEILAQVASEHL

[4] = target: T4, full-length HMG20b with C-terminal 6xHis tag (human, UniProt Q9P0W2 1-317)
T4 construct: cloned in pET21a; also called His-HMG20b; source: E. coli BL21 (DE3), purified (Ni-NTA agarose)
T4 sequence (looked up): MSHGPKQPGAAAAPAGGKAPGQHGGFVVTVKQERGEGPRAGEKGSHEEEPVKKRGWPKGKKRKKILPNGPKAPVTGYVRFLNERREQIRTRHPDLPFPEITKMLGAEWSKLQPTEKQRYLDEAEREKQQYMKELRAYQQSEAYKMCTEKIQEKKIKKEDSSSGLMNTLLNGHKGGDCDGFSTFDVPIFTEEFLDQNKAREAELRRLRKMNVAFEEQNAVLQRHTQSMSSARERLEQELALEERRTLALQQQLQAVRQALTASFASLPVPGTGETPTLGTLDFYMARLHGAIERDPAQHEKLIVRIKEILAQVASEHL

Measured: binding result

B1: Biotinylated BRC5 peptide (BRCA2 amino acid residues 1661-1695) (peptide, UniProt P51587 1661-1695, looked up)
peptide: YSVIENSALAFYTSCSRKTSVSQTSLLEAKKWLRE
modifications: also: biotinylated (position not given here)
notes: BRCA2, human, BRC5 repeat motif, residues 1661-1695; also called Biotin-BRC5 peptide; BRC5 repeat; source: synthetic peptide (Cambridge Research Biochemicals)
binds: all assays above
